Assay: label from the status in PepcDB records

MANQLDASVKDDLKTQFVTREGTYRLLTLSEYSRPNRVGYSSNQSSPQVRVSMVTLPSPAQGKLGSDVGVGTPVGGGTAGANTTTTNGSSPGASPTGAAGASTAISNGGAGGDYSHSNHNSNSAGNNTVEARLGGGISMHSMMNGGVVDQNGVATNQVLGGDRICFNFGRDLYVYSFRGAKKGTEMSKPIDKKFYKGTNPSCHDFNISSATPTGAPLLVGFTTGQIQLVSPHVGPREVRKLFNEERLIDKTKVTCLKWLPNSPHLFLAAHASGHLYLYNEELPCAATAPSYQPFKLGDGYTILTSKSKTTRNPLFKWVFSTDNCCVNEFCFSPCGSHLAVVSQDGFLRVFHYDTMELLGIARSYFGGFLCVCWSPDGKYIVVGGEDDLVTVWSLHERRVVARGQGHRSWVSVVAFDPYTTSYTNWDGGDFSDDENQMNEYSHSREARFSGDSTANGGFEGFDRNSTPVHADRNGPHSASFRSDASSAEKLMSYRLGSVSQDTQICLWDITEDVLRHPLVLRQPANSERAYLNGGVDEEAEAEDGIKVIRPVAMSGQATGQQAESGSCSPTREAAGGGTGNGAGEHSNSSSSKFSTANCTISSQSSPDDCDTEAATPASTSSNAGAGSVAGAGAVASTKQNNRNHGTGNSIKFPNCISATKSDSIDGGGGSGSGQRPSQTTSGYNSKTSNSSNKSSNSGSGFSAFNSLTQRLSNFSFLSSSEKKGAGYEGSHSTAHRQHRKAMSMLKSYNQHNHTGGHNNHSQSNNSSSSNFGHSSTLDSNAAGAIGSSSTAHSFGSLKLSRSSHHSSLATAAHASGSAAGSGSGVSSFDPMQLIGTPACPRFDECPLLEPLVCKKIAHERLTALIFREDCFLTACQDGFIYTWARPGHATHATQHLSPGQAAAPGGTVI
protein production: failed

MANVSLNKVDKQALVHQPNLLRECFALLVNAHYQTSPNDLLHLLRDDNSSVYLAMDKQNIIGVILTVEEGGLDDELIEAIQLGQRRPKGHLTPITIINQLGLVKVGKLITSRVMRIAVHPDLQGSGIGKRMLTLLEESVGAHVDYLSTSFGATDELIQFWQQAGYQSIRLGTMRDAASGCYSLLMVRQLANKSQ
protein production: failed

MANWLNQLQSLLGQSSSSTSSSADQGLGKLLVSGALGGLAGLLVANKSARKLLTKYGTNALLVGGGAVAGTVLWNKYKDKIRAAHQDEPQFGAQSTPLDERTERLILALVFAAKSDGHIDANERAAIDQQLREAGVEEQGRVLIEQAIEQPLDPQRLATGVRNEEEALEIYFLSCAAIDIDHFMERSYLNALGDALKIPQDVREGIERDLEQQKRTLAE
protein production: failed

MANWRGAGDSLSTGTGGSEAPPRKSPARLHQWRKLRVSHDDRTCPYQRCRHHLLRRIADARRRYRLLCRRSEHEHSRRVDRSFAEARHGRRRPGRCRSSHPQGCGHRQRDPHKIMSAAPAAPALDALGPDTPAHTVDAFHRGRFWLVQPKHGGHRAGMDAMMLAASVPSVFGGRLADFGAGAGAAGLAVLSRCPAARAVLVERAPEMAAFASATLAHPGNAHLSDRASVLVADVTVSGQARVAAGLADNDFDYVIMNPPFNAARDRATPDRLRKEAHVMEDGLFESWIRSAAAVVRPRGGLAVIARPEQLGAILDAMSGRFGDAEMLAVHPRPDAAAIRIIVRAALGARGKLAIRPPLMLHAQAGNGPDERSEMITNGLASLFGD
protein production: failed

MAPAKSPRAWQRMLSGRRLDLLDPSPLDVEIADIAHGLARVARWNGQTRGDHAFTVAQHCLIVETIFCRMCPGATPDEMQMALLHDAPEYVIGDMISPFKSVVGGGYKTVEKRLEAAVHLRFGLPPHASRELKDRIKKADTVAAFFEATELAGFSTAEAQKFFGLPRGITRDMFDIIPLPSTEAQRLFIARFEAIETLRVTRTGGAV
protein production: not failed

MAPDNDHFLDSPSPPLLEMRHHQSATENGGGCGEIVEVQGGHIVRSTGRKDRHSKVCTAKGPRDRRVRLSAPTAIQFYDVQDRLGFDRPSKAVDWLITKAKSAIDDLAQLPPWNPADTLRQHAAAAANAKPRKTKTLISPPPPQPEETEHHRIGEEEDNESSFLPASMDSDSIADTIKSFFPVASTQQSYHHQPPSRGNTQNQDLLRLSLQSFQNGPPFPNQTEPALFSGQSNNQLAFDSSTASWEQSHQSPEFGKIQRLVSWNNVGAAESAGSTGGFVFASPSSLHPVYSQSQLLSQRGPLQSINTPMIRAWFDPHHHHHHHQQSMTTDDLHHHHPYHIPPGIHQSAIPGIAFASSGEFSGFRIPARFQGEQEEHGGDNKPSSASSDSRH
protein production: failed

Reference: a protein production outcome set (Wang et al. 2014)
